From patent publication US20240287457A1, “COMPOSITIONS AND CELL CULTURE MEDIA FOR INCREASING NEUTROPHIL LIFESPAN” (THE CHILDREN'S MEDICAL CENTER CORPORATION, priority 2021, published 2024)

Experiments:
neutrophils = details: 20 hours at 37° C. in anoxic culture medium with 3 mM glucose and 32 mg/mL DMOG; from about 1 day; cited from earlier work
caspases = details: pan-caspase inhibitor; cited from earlier work
murine neutrophils [1] = test: In vitro neutrophil death / survival of cultured murine neutrophils; format: cell-based, mouse; details: for healthy neutrophils remaining: mouse, G-CSF alone
[2] = tested on: neutrophils purified from wild-type (WT) mice; test: fMLP-induced neutrophil polarization (ruffling); format: cell-based, mouse; details: fMLP 1 μM, FIG. 10
Description: FIG. 10A is a series of images showing chemoattractant-induced neutrophil ruffling. Neutrophils (2×10^5) purified from wild-type (WT) mice were plated on LABTEK chamber slides and cultured in RPMI-1640 in the presence or absence of Rac1 inhibitor for 60 minutes. Cells were then uniformly stimulated with N-formyl-met-leu-phe (fMLP, 1 μM). Images were taken 5 minutes after the fMLP stimulation (400×). FIG. 10B is a bar graph showing the percentage of cells that ruffled or extended pseudopods, calculated from images captured 5 minutes after stimulus was added. At least 200 cells were assessed for each sample in each experiment. Data are represented as mean±SD of three experiments. **p<0.001 versus untreated neutrophils.

cells = details: even at extremely high concentrations; cited from earlier work
murine neutrophils [3] = test: In vitro phagocytosis assay, murine neutrophils; format: cell-based, mouse; details: after one day of culture
Description: In vitro phagocytosis assay: […] pHrodo Red E. coli BioParticles or Zymosan A S. cerevisiae BioParticles (INVITROGEN) were reconstituted in phosphate-buffered saline (PBS) and opsonized with 10% serum at 37° C. for 30 minutes. Neutrophils were incubated with serum-opsonized bioparticles at a ratio of 1:10 (neutrophils:bioparticles) at 37° C. for 0.5 hours. APC-Ly6G (BIOLEGEND, 1A8, 0.2 μg/mL) or APC-CD16 (BIOLEGEND, 51.1, 0.2 μg/mL) antibody was added to the sample to label mouse or human neutrophil membranes. The labeling was achieved by incubating the samples at room temperature for 3 minutes. The number of internalized particles was counted under a spinning disk confocal microscope ([…] VOX). Phagocytosis efficiency was expressed as the percentage of neutrophils that engulfed at least one bioparticle. Phagocytosis index was expressed as the average number of internalized particles per cell. At least 200 cells were counted from random fields per coverslip for each group.

E. coli = test: Neutropenia-related E. coli-induced pneumonia model (GTX); format: in vivo, mouse
transfused neutrophils [4] = test: In vivo recruitment of transfused neutrophils in a mouse peritonitis model; details: 1-day-old neutrophils
Description: In vivo recruitment of transfused neutrophils in a mouse peritonitis model: Freshly isolated CD45.1^+ or CLON-G-treated (1 day) GFP^+ bone marrow neutrophils were mixed (1:1, a total of 5×10^6/mouse) and injected intravenously into neutropenic recipient mice challenged with TG for 1 hour. At the indicated time points after cell injection, peritoneal cells were harvested by peritoneal cavity lavage with 5 mL of ice-cold PBS/15 mM EDTA, flushed back and forth three times. The relative amount of transfused freshly isolated CD45.1^+ and CLON-G-treated (1 day) GFP^+ neutrophils were analyzed by flow cytometry using a BD FACSCANTO II flow cytometer as described above.

[5] = tested on: transfused human neutrophils; test: Survival and function of transfused human neutrophils in vivo in NSG mice
human neutrophils = test: In vitro neutrophil death / survival of cultured human neutrophils; details: G-CSF alone
[6] = tested on: neutrophils in the granulocyte apheresis concentrates; test: Survival and function of neutrophils from human granulocyte apheresis concentrates; format: cell-based; details: cultured for only 1 day, FIG. 6K
Description: Accordingly, the donors were stimulated in the evening and granulocyte collection was carried out the next morning. Neutrophil harvesting was accomplished through the process of apheresis in which red blood cells (RBCs) and plasma were returned to the donor. To collect enough cells for GTX, standard continuous flow apheresis was performed for 1 to 1.5 hours to process 3.5 to 5 liters of blood. Citrate was used as the anticoagulant during collection and calcium gluconate was added to the return line to counteract the citrate-induced hypocalcemic symptoms in the donor. […] The purity was >97% as determined by both Wright-Giemsa staining and flow cytometry analysis with CD15 and CD16 antibodies. […] No contamination of hematopoietic progenitor cells (HPCs) was detected. […] The total initial cell number was counted using a hemocytometer before culture or treatment. At each indicated time point, the total cell number was counted again. […] Apoptotic cells were detected by Annexin V-fluorescein isothiocyanate (FITC) and propidium iodide (PI) staining using an Annexin V Detection Kit (BD BIOSCIENCES) following the manufacturer's protocol. Flow cytometry was performed using a FACSCANTO II flow cytometer and analyzed using […] software (BD BIOSCIENCES). […] Chemotaxis velocity and directionality were analyzed; see e.g., Jia et al. 2007, supra. […]

transfused neutrophils [7] = test: In vivo recruitment of transfused neutrophils in bacterial pneumonia; set-up: species or system mouse; details: lungs
Description: In vivo recruitment of transfused neutrophils in bacterial pneumonia: Freshly isolated or CLON-G-treated bone marrow neutrophils were labeled with carboxyfluorescein diacetate succinimidyl ester (CFSE, 5 μM) or seminaphthorhodafluor-1 acetate (SNARF-1, 5 μM) at 37° C. for 10 minutes; labeled cells were mixed (1:1, a total of 5×10^6/mouse) and transfused via the tail vein into the same neutropenic recipient mice challenged with 5×10^3 cfu E. coli for 4 hours. Whole lungs were homogenized 3 hours after neutrophil transfusion. The number of adoptively transferred neutrophils recruited to the lungs was analyzed using a FACSCANTO II flow cytometer and […] software. Relative recruitments of CLON-G-treated and freshly isolated neutrophils were calculated as the ratio of the indicated populations.

Molecule: COC(=O)CNC(=O)C(=O)OC [DMOG, dimethyloxalylglycine]
- neutrophil half-life in vitro (neutrophils): 48 h

Molecule: C[C@H](NC(=O)C(=O)Nc1ccccc1C(C)(C)C)C(=O)N[C@@H](CC(=O)O)C(=O)COc1c(F)c(F)cc(F)c1F [Emricasan, N-[2-(1,1-dimethylethyl)phenyl]-2-oxoglycyl-N-[(1S)-1-(carboxymethyl)-2-oxo-3-(2,3,5,6-tetrafluorophenoxy)propyl]-L-Alaninamide, reference compound]
- activity in vitro (caspases): sub- to nanomolar
- lifespan of cultured neutrophils (murine neutrophils [1]; in combination with NAC, Hsp70, DFO, G-CSF, and optionally a RIPK1 inhibitor, FIG. 23, murine bone marrow neutrophils): prolonged the lifespan

Molecule: CCN(CC)CCCC(C)Nc1nc(C)cc(Nc2ccc3nc(C)cc(N)c3c2)n1 (centres unmarked) [NSC23766]
- fMLP-induced neutrophil polarization [2]: effectively inhibited

Molecule: CC(C)C(NC(=O)c1ccc2ccccc2n1)C(=O)NC(CC(=O)O)C(=O)COc1c(F)cccc1F (stereo not drawn) [Q-VD-Oph, Quinoline-Val-Asp-Difluorophenoxymethylketone]
- toxicity to cells (cells): not toxic

B1: G-CSF: granulocyte colony-stimulating factor (AMGEN, NEUPOGEN), PI3K/Akt pathway stimulator (protein, listed as Homo sapiens)
chain: MTPLGPASSLPQSFLLKCLEQVRKIQGDGAALQEKLCATYKLCHPEELVLLGHSLGIPWAPLSSCPSQALQLAGCLSQLHSGLFLYQGLLQALEGISPELGPTLDTLQLDVADFATTIWQQMEELGMAPALQPTQGAMPAFASAFQRRAGGVLVASHLQSFLEVSYRVLRHLAQP
- phagocytosis efficiency (murine neutrophils [3]): lower
- inflammatory cytokine concentrations (TNF-α, IL-6) (E. coli; inflamed lungs, ELISA): unable to reduce inflammatory cytokine concentrations
- edema formation (E. coli; lung, transfusion of treated neutrophils): failed to produce the same protective effect
- bacteria-killing capacity in neutropenic recipient mice (E. coli; transfusion of treated neutrophils, 5×10^3 cfu E. coli): ineffective
- BALF protein concentrations (E. coli; transfusion of treated neutrophils, compared with fresh neutrophils): remained high
- recruitment efficiency compared to fresh neutrophils (transfused neutrophils [4]): reduced recruitment efficiency
- healthy neutrophils remaining (murine neutrophils [1]; after 1 day of treatment): ~40%
- healthy neutrophils remaining (murine neutrophils [1]; after 3 days of treatment): ~15%
- recruitment of transfused human neutrophils to the inflamed peritoneal cavity ([5]; 1 and 2 hours post transfusion): lower
- human neutrophils left in the peritoneal cavity / cell death ([5]; injected into inflamed peritoneal cavity, each time point): faster rates of cell death
- phagocytosis efficiency lower than that of fresh human neutrophils ([5]; pHrodo-E. coli): about 50%
- healthy neutrophils remaining (human neutrophils; after 1 day of treatment): about 55%
- healthy neutrophils remaining (human neutrophils; after 3 days of treatment): ~15%
- reduction in relative bacterial killing capability [6]: more than 50%
- recruitment efficiency compared to fresh neutrophils (transfused neutrophils [7]): reduced recruitment efficiency
